{
  "source": "patent US6004757",
  "key": {"[1]": {"target": "GST-fusion construct of src"}, "[2]": {"target": "human EGF receptor (human) (UniProt P00533)"}, "[3]": {"target": "chicken pp60^v-src (chicken)"}, "[4]": {"target": "chicken pp60^v-src (chicken)", "test": "inhibition of transphosphorylation of acid denatured enolase (1 µM) by immobilised pp60^v-src, [γ-32P]-ATP, SDS-PAGE"}},
  "data": [
    {"substance": "peptide Ala-Glu-Glu-Glu-Ile-Tyr-Gly-Glu-Phe-Glu-Ala-Lys-Lys-Lys-Lys", "values": [
      {"measurement": "Km of phosphorylation of the peptide by the kinase", "setting": "[1]", "result": 33, "unit": "µM"},
      {"measurement": "Km (µM) of phosphorylation of the peptide by the kinase", "setting": "[2]", "result": 34, "unit": "µM"},
      {"measurement": "Km (µM) of phosphorylation of the peptide by the kinase", "setting": "[3]", "result": 32.9, "unit": "µM"},
      {"measurement": "Ki", "setting": "[4]", "result": 8, "unit": "µM"}
    ]}
  ]
}
